Data: the supplement of paper PMC10567573

B1: CAMK2D (parent)
chain: IVRLHDSISEEGFHYLVFDLVTGG

Variants of: B1
Experiment: protein stability index of a GFP-peptide fusion (GPS, HEK-293T) (PSI 1-6); higher = more stable
Settings: c terminus: a fixed tail appended
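Further: lentivirally expressed fusions sorted by FACS into six bins by GFP to DsRed ratio, PSI derived from sequencing read proportions per bin multiplied by bin number.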

Variant	protein stability index
T22M	2.02
T22S	2.67
T22I	2.22
T22K	3.31
T22E	2.96
T22N	4.16
T22H	2.24
T22C	3.58
T22Y	3.62
L20I	3.09
L20D	1.67
L20V	3.87
L20R	2.04
L20A	2.13
L20S	1.45
L20Q	2.52
L20K	2.41
L20N	2.25
L20Y	2.67
L20G	1.93
L20H	1.35
L20E	2.05
L20T	2.27
L20P	1.86

Variant	protein stability index
L20M	3.24
L20C	3.9
F18L	2.51
F18K	2.17
F18V	4.52
F18Q	1.33
F18S	2
F18R	1.79
F18G	2
F18E	2.33
F18H	1.63
F18T	2.1
F18P	2.13
F18Y	1.43
F18N	2.84
D19K	2.88
D19G	2.15
D19S	4.24
D19M	3.68
D19I	2.4
D19T	1.62
D19Q	2.4
D19W	1.91
D19A	1.87

Variant	protein stability index
D19V	2.75
D19P	3.21
D19L	2.47
D19Y	3.34
V21D	3.2
V21T	2.88
V21K	1.57
V21L	2.71
V21N	4.11
V21A	1.11
V21W	4.26
V21P	2.41
V21H	2
V21Q	2.38
V21G	3.19
V21M	1.93
V21F	3.33
V21Y	3.1
G24D	2.26
G24L	2.13
G24F	1.57
G24E	4.45
G24Y	3.88
G24R	2.09

Variant	protein stability index
G24K	2.87
G24V	3.44
G24W	2.09
G24Q	2.89
G24P	3.4
G24C	2.4
G24S	2.88
G24M	3.78
G23L	2.92
G23H	2.88
G23A	3.32
G23K	2.19
G23R	2.53
G23C	4.08
G23W	2.89
G23T	3.2
G23I	2.57
G23V	2.43
G23Y	4.01
G23Q	2.59
G23P	3.1
G23N	2.49
G23E	3.03
